The target of this assay is T1, human glycogenin-1 (GN1), GST removed by PreScission protease (human, UniProt P46976 1-350, glycosylated (degree of glycosylation modest)).
T1 construct: human glycogenin-1 (GN1), NM 004130; released from GST at the PreScission site; the introduction speaks of a complete full-length complex; Same construct as m2 after cleavage; source: Sf9, co-expressed with GYS1; purified with GYS1 (glutathione Sepharose, eluted by GST-tagged PreScission protease, Superdex 200)
T1 sequence (looked up): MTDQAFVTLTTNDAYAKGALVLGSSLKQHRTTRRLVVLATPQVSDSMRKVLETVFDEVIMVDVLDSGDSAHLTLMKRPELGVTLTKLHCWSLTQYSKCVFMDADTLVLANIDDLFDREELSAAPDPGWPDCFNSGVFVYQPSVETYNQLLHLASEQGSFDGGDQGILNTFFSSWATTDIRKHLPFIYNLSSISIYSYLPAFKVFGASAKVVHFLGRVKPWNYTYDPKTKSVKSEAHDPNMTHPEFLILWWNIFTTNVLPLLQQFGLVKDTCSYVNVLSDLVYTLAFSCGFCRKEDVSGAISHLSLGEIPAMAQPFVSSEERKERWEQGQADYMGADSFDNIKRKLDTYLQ
The assay is described as follows: SEC; analytical: purified GYS1:GN1 (5 ug) on Superdex 200 3.2/300, 20 mM TES pH 7.4, 150 mM KCl, 1 mM DTT; apparent MW against protein standards. The note with it: both partners purified. (Size exclusion chromatography separates by hydrodynamic size, large species first.)

B1: human muscle glycogen synthase (GYS1) (enzyme, UniProt P13807 1-737, looked up)
chain: MPLNRTLSMSSLPGLEDWEDEFDLENAVLFEVAWEVANKVGGIYTVLQTKAKVTGDEWGDNYFLVGPYTEQGVRTQVELLEAPTPALKRTLDSMNSKGCKVYFGRWLIEGGPLVVLLDVGASAWALERWKGELWDTCNIGVPWYDREANDAVLFGFLTTWFLGEFLAQSEEKPHVVAHFHEWLAGVGLCLCRARRLPVATIFTTHATLLGRYLCAGAVDFYNNLENFNVDKEAGERQIYHRYCMERAAAHCAHVFTTVSQITAIEAQHLLKRKPDIVTPNGLNVKKFSAMHEFQNLHAQSKARIQEFVRGHFYGHLDFNLDKTLYFFIAGRYEFSNKGADVFLEALARLNYLLRVNGSEQTVVAFFIMPARTNNFNVETLKGQAVRKQLWDTANTVKEKFGRKLYESLLVGSLPDMNKMLDKEDFTMMKRAIFATQRQSFPPVCTHNMLDDSSDPILTTIRRIGLFNSSADRVKVIFHPEFLSSTSPLLPVDYEEFVRGCHLGVFPSYYEPWGYTPAECTVMGIPSISTNLSGFGCFMEEHIADPSAYGIYILDRRFRSLDDSCSQLTSFLYSFCQQSRRQRIIQRNRTERLSDLLDWKYLGRYYMSARHMALSKAFPEHFTYEPNEADAAQGYRYPRPASVPPSPSLSRHSSPHQSEDEEDPRNGPLEEDGERYDEDEEAAKDRRNIRAPEWPRRASCTSSTSGSKRNSVDTATSSSLSTPSEPLSPTSSLGEERN
modifications: heavily phosphorylated: phospho-T54, T372, S412, S486, S641, S645, S647, S652, S653, S657, S710, S727 (LC-MS), S8/S11 (immunoblot); about 6 mol phosphate per mol total protein (GYS1 + GN1)
notes: human muscle glycogen synthase GYS1, NM 002103, UniProt P13807; no tag; the introduction speaks of a complete full-length complex; tryptic peptides up to residue 737 were found; the methods say only 'genes coding for human GYS1'; also called glycogen synthase-1; GYSb (native, phosphorylated form); source: Sf9, co-expressed with GST-tagged GN1 from a bicistronic pFastBac-Dual baculovirus; in …
For the molecule B1, the stoichiometry N (usually a count of units in the complex or per binding partner) is ~1 GYS1 per GN1 (printed as 4:4).

(Values after paper PMC4370744, “Expression and purification of functional human glycogen synthase-1:glycogenin-1 complex in insect cells” (Protein Expression and Purification, 2015).)
